Experimental findings from paper PMC3086075 are described below.

What all share (assay): discontinuous malachite green phosphate-release assay, Michaelis-Menten fit
Type in all cases: biochemical, Pasteurella multocida
What all share (conditions): 200 mM sodium acetate pH 5.5, 1 mM MgCl2, 37 °C, apparent Km

Substrate in data set [1]: Nc1ncnc2c1ncn2[C@@H]1O[C@H](COP(=O)(O)O)[C@@H](O)[C@H]1O
Substrate in data set [2]: NC(=O)c1ccc[n+]([C@@H]2O[C@H](COP(=O)([O-])O)[C@@H](O)[C@H]2O)c1
Substrate in data set [3]: O=[N+]([O-])c1ccc(OP(=O)(O)O)cc1
Substrate in data set [4]: Nc1ncnc2c1ncn2[C@@H]1O[C@H](CO)[C@@H](OP(=O)(O)O)[C@H]1O
Substrate in data set [5]: Nc1ncnc2c1ncn2[C@@H]1O[C@H](CO)[C@@H](O)[C@H]1OP(=O)(O)O

B1: rPmCCAP (Pasteurella multocida) (protein)
chain: SNQQAVEQANQAKLQQQVAMGLIWTQQSGEYAALAHQAFNSAKMAFDHAKAKKGKKKAVVVDLDETMIDNSAYAGWQVQSGQGFSPKTWTKWVDARQSAAIPGAVEFSNYVNANGGTMFFVSNRRDDVEKAGTVDDMKRLGFTGVNDKTLLLKKDKSNKSVRFKQVEDMGYDIVLFVGDNLNDFGDATYKKSNAERRDFVAKNSKAFGKKFIVLPNTQYGDWEGGLDKNYFKGDSQSKLDVRAKAIHAWDGK
One may read the Km as the substrate concentration at which the rate is half of its maximum. Broadly, the kcat is the number of substrate molecules converted per active site and unit of time at saturation. The kcat/Km is the second-order rate constant that governs catalysis at low substrate concentration. With B1, the Km in data set [1] came to 80 ± 10 µM; in data set [2], 290 ± 60 µM; in data set [3], 500 ± 100 µM; in data set [4], 800 ± 200 µM; in data set [5], 1400 ± 300 µM. Moreover, the kcat in data set [1] was found to be 0.18 ± 0.01 s⁻¹; in data set [2], 4.4 ± 0.3 s⁻¹; in data set [3], 6.2 ± 0.5 s⁻¹; in data set [4] it was 0.19 ± 0.01 s⁻¹; in data set [5], 0.13 ± 0.01 s⁻¹. In addition, the kcat/Km in data set [1] was 2300 ± 310 M⁻¹ s⁻¹; in data set [2], 15000 ± 3300 M⁻¹ s⁻¹; in data set [3] it was 12000 ± 2700 M⁻¹ s⁻¹; in data set [4] it was 240 ± 61 M⁻¹ s⁻¹; in data set [5], 90 ± 21 M⁻¹ s⁻¹.
